Reference: patent publication US20110117017A1, “PEPTIDES WITH PROPERTIES OF AN […] FOR THE ALPHA 1A […] RECEPTOR AND USES THEREOF” (priority 2006, published 2011)
pIC50, pKd: −log10 of the molar value. Where two headings read alike, the source gives them in different places.

Experiments:
[1] = biological target: alpha1d adrenergic receptor (expressed in Pichia pastoris, membranes)
[2] = biological target: beta1 adrenergic receptor (expressed in Pichia pastoris, membranes)
[3] = biological target: alpha1a adrenergic receptor (expressed in Pichia pastoris, membranes)
[4] = biological target: alpha2a adrenergic receptor (expressed in Pichia pastoris, membranes)
[5] = biological target: alpha1a adrenergic receptor (expressed in Pichia pastoris, membranes); remark: listed apart in the source
[6] = biological target: alpha1a adrenergic receptor (expressed in Pichia pastoris, membranes); remark: listed apart in the source

Sequence of alpha1a adrenergic receptor (expressed in Pichia pastoris, membranes) (P35348 whole entry): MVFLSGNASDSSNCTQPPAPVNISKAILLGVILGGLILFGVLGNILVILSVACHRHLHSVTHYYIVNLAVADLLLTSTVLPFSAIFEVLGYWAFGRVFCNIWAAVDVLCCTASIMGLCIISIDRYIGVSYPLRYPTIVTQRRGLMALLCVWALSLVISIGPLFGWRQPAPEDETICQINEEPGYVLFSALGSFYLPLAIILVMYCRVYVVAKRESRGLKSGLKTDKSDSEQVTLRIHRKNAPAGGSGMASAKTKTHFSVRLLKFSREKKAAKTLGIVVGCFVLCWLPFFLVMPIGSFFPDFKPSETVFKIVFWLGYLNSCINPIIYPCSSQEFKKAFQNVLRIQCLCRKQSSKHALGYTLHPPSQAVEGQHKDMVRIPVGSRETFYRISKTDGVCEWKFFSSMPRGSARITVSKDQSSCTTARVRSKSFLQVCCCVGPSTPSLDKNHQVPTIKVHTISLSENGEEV
Sequence of alpha2a adrenergic receptor (expressed in Pichia pastoris, membranes) (P08913 whole entry): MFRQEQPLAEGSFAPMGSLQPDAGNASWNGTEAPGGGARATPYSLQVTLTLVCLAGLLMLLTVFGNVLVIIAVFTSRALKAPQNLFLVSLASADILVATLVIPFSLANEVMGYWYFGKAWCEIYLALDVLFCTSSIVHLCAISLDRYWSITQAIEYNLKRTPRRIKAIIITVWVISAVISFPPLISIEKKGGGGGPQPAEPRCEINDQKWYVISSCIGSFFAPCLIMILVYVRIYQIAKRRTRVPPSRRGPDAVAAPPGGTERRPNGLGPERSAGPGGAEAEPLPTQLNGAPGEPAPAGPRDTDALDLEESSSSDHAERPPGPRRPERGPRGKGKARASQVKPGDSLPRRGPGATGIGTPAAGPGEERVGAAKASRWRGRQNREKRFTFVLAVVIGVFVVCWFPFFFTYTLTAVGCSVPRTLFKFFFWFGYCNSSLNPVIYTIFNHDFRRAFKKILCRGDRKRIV
Sequence of alpha1d adrenergic receptor (expressed in Pichia pastoris, membranes) (P25100 whole entry): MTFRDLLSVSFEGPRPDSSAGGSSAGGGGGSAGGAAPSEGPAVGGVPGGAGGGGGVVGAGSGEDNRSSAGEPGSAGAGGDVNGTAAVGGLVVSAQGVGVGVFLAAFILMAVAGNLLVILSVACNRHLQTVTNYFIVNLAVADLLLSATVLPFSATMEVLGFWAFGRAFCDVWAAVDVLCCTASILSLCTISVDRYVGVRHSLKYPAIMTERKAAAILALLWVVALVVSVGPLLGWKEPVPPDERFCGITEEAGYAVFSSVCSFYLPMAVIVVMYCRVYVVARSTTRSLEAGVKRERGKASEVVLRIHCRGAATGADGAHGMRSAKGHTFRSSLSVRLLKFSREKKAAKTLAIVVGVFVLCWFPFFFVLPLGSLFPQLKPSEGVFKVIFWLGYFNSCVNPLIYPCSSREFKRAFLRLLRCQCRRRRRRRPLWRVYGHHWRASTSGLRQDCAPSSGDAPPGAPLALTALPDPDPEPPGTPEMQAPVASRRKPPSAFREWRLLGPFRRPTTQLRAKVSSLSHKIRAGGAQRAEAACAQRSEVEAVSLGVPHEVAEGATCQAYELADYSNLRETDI
Sequence of beta1 adrenergic receptor (expressed in Pichia pastoris, membranes) (P08588 whole entry): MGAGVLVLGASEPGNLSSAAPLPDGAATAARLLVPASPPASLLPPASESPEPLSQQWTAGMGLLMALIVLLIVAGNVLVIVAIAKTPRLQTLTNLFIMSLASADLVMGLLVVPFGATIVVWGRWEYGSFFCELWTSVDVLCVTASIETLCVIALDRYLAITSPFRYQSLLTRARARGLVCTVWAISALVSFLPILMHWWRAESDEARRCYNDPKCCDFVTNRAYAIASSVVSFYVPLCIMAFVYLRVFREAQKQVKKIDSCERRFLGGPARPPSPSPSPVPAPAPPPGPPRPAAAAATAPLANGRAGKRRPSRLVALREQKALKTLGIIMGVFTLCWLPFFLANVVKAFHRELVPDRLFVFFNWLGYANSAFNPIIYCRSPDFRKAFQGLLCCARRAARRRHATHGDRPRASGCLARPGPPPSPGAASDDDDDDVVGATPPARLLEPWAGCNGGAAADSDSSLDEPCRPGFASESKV

Substance	pIC50 [1]	pIC50 [2]	pIC50 [3]	pIC50 [4]	pIC50 [5]	pKd [6]
AdTx1 peptide	5.00	< 4.30	8.74	< 4.30	9.30	–
radiolabeled AdTx1 peptide (125I-AdTx1)	–	–	–	–	–	9.10
